Earlier results, collected in publication PMC3472557.

Assays:
ASPP2 (Homo sapiens) [1] = biological target: ASPP2 (Homo sapiens) (UniProt Q13625); assay: solid-phase ELISA
ASPP2 (Homo sapiens) [2] = biological target: ASPP2 (Homo sapiens) (UniProt Q13625); assay: BIAcore SPR

Sequence of ASPP2 (Homo sapiens) (Q13625 whole entry): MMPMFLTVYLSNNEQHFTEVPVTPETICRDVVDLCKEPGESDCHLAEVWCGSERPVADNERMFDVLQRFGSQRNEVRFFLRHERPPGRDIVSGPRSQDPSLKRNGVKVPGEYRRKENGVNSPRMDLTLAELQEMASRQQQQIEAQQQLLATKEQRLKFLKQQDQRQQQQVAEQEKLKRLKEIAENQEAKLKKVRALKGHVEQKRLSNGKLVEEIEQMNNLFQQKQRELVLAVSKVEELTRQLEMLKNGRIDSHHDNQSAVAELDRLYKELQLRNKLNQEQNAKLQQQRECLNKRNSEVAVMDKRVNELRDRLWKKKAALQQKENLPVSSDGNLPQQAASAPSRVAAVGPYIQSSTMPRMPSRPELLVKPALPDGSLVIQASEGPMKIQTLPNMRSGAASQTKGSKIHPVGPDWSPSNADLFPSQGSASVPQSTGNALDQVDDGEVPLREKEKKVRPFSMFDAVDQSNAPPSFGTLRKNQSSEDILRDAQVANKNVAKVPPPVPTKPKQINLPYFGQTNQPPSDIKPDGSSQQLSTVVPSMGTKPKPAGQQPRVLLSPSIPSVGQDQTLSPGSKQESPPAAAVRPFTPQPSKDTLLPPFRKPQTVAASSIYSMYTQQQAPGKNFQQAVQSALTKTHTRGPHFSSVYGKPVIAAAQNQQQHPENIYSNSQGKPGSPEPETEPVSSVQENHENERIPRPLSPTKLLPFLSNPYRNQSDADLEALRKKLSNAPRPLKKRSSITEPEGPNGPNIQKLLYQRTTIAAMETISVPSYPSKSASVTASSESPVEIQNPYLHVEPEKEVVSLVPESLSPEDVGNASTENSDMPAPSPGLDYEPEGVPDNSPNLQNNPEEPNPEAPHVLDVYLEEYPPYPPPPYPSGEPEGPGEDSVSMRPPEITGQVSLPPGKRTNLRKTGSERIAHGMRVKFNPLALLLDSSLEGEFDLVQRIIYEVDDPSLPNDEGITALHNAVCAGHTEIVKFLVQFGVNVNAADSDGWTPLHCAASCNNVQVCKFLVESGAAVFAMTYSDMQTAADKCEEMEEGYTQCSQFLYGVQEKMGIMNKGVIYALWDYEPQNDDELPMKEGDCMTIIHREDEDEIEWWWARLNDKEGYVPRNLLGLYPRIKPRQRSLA

Kd (ASPP2 (Homo sapiens) [1]): 23 nM
Kd (ASPP2 (Homo sapiens) [2]): 30 nM
Substance: p53 (from UniProt P04637)
